One block for each binder: values may come before it.
Key:
TniQ + TnsC (ShCAST) = target: T1, TniQ + TnsC (ShCAST) (Scytonema hofmannii UTEX B 2349); assay: FP; TniQ titrated onto DNA preincubated with TnsC, 50 mM NaCl, 37C; conditions: tags: His6-SUMO-TEV cleaved
T1 chain 1: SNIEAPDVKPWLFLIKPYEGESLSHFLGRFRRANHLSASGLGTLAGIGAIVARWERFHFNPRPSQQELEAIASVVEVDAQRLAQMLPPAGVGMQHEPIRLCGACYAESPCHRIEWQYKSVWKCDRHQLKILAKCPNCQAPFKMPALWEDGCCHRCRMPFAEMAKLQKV
T1 chain 2: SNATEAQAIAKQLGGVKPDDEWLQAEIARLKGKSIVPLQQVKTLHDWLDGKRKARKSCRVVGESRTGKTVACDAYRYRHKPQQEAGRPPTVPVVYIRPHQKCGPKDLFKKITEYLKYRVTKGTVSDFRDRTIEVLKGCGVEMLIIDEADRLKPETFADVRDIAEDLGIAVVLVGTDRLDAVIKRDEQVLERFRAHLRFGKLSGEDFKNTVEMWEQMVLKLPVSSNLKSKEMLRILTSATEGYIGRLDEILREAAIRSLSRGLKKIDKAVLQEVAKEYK
Protocol: (§1) Fluorescence polarization. Fluorescence polarization was performed as reported earlier (Hoffmann, F. T. et al. Nature 609, 384-393 (2022). A 55 bp dsDNA labeled with a 5′ Fluorescein (6-FAM) tag on one of its strands was used for all fluorescence polarization experiments (Table 3). Recombinantly expressed TnsC (0-15 μM) was titrated with the FAM-labeled dsDNA in 1× binding buffer (20 mM HEPES pH 7.5, 2 mM MgCl₂, 200 mM NaCl, 10 μM ZnCl₂, 1 mM DTT) in the presence of 2 mM ATP or its analogs. The samples were incubated at 37° C. for 30 min in a 384-well plate. The fluorescence gain was adjusted to a sample lacking TnsC while keeping a requested polarization value of 60 mP. The error bar represents the standard deviation measured across two technical replicates. For low salt measurements, the concentration of NaCl was maintained at 50 mM.
(§2) For fluorescence polarization measurements for TniQ alone or its interaction with DNA bound to TnsC, TniQ (0-1 μM) was titrated and incubated for 30 min at 37° C. with fluorescently labeled DNA alone or DNA preincubated with […] (30 min at 37° C.). Experiments were conducted in a 1× binding buffer containing 50 mM NaCl in a 25 μL final volume.

TnsC (ShCAST) = target: T2, TnsC (ShCAST) (Scytonema hofmannii UTEX B 2349); assay: FP; ATP-dependent at 200 mM NaCl; nucleotide-independent at 50 mM NaCl; 2 mM MgCl2, 37C; conditions: tags: His6-SUMO-TEV cleaved (SNA N-terminal scar)
T2 chain: T1 chain 2
Protocol: as §1

[1] = target: T3, TnsC (Scytonema hofmannii UTEX B 2349, Type V-K CAST, recombinantly purified, after TEV cleavage)
T3 chain: T1 chain 2

[2] = target: T4, TnsC (Scytonema hofmannii UTEX B 2349, Type V-K CAST, recombinantly purified, after TEV cleavage) (Scytonema hofmannii (UTEX B 2349)); assay: fluorescence polarization, TniQ (0-1 µM) titrated onto 55-bp FAM-labeled dsDNA preincubated with TnsC
T4 construct: also called AAA+ ATPase; AAA+ regulator
T4 chain: T1 chain 2
Protocol: as §1, §2

B1: 55-bp FAM dsDNA (dsDNA)
DNA 1: GAGGAGGGCTGTTTTTACAAAATCCGGTAGTAACTTGCTAACCAATTCCTAGGCA
DNA 2: TGCCTAGGAATTGGTTAGCAAGTTACTACCGGATTTTGTAAAAACAGCCCTCCTC
binding result (TniQ + TnsC (ShCAST)): binds
binding result (TnsC (ShCAST)): binds

B2: TnsB (Scytonema hofmannii UTEX B 2349, Type V-K CAST, recombinantly purified, after TEV cleavage) (protein)
chain: SNNSQQNPDLAVHPLAIPMEGLLGESATTLEKNVIATQLSEEAQVKLEVIQSLLEPCDRTTYGQKLREAAEKLNVSLRTVQRLVKNWEQDGLVGLTQTSRADKGKHRIGEFWENFITKTYKEGNKGSKRMTPKQVALRVEAKARELKDSKPPNYKTVLRVLAPILEKQQKAKSIRSPGWRGTTLSVKTREGKDLSVDYSNHVWQCDHTRVDVLLVDQHGEILSRPWLTTVIDTYSRCIMGINLGFDAPSSGVVALALRHAILPKRYGSEYKLHCEWGTYGKPEHFYTDGGKDFRSNHLSQIGAQLGFVCHLRDRPSEGGVVERPFKTLNDQLFSTLPGYTGSNVQERPEDAEKDARLTLRELEQLLVRYIVDRYNQSIDARMGDQTRFERWEAGLPTVPVPIPERDLDICLMKQSRRTVQRGGCLQFQNLMYRGEYLAGYAGETVNLRFDPRDITTILVYRQENNQEVFLTRAHAQGLETEQLALDEAEAASRRLRTAGKTISNQSLLQEVVDRDALVATKKSRKERQKLEQTVLRSAAVDESNRESLPSQIVEPDEVESTETVHSQYEDIEVWDYEQLREEYGF
ATP hydrolysis activity of TnsC (Malachite Green assay) [1]: TnsB stimulates the ATP hydrolysis activity of TnsC in a DNA-dependent reaction
phosphate liberated (Malachite Green Phosphate Assay; TnsC 10 µM, TnsB 20 µM, dsDNA 10 µM, 1 mM ATP, 120 min at 37° C.) [1]: the sample containing TnsC, TnsB and dsDNA which liberated 174 µM of phosphate

binding result [2]: binds
B3: TniQ (Scytonema hofmannii UTEX B 2349, Type V-K CAST, recombinantly purified, after TEV cleavage) (other)
chain: T1 chain 1
notes: also called ShCAST TniQ; adaptor protein

From patent publication US20260139278A1, “SPECIFICITY OF CRISPR-TRANSPOSON SYSTEMS IN DNA MODIFICATION” (The Trustees of Columbia University in the City of New York, published 2026)
